Experimental data: patent US20190359693A1

Key:
[1] = molecular target: HA of B/Brisbane/60/2008 (Victoria) (influenza B virus); assay: AlphaLISA competition vs CR8071
[2] = molecular target: HA of H3N2 A/Brisbane/10/2007 (influenza A virus); assay: AlphaLISA competition vs 39.29
[3] = molecular target: HA of H3N2 A/Brisbane/10/2007 (influenza A virus); assay: AlphaLISA competition vs SD1036
[4] = molecular target: HA of B/Florida/04/2006 (Yamagata) (influenza B virus); assay: AlphaLISA competition vs CR8033
[5] = molecular target: hemagglutinin (HA) of influenza B/Lee/40 (Old) (influenza B virus) (UniProt P03460); assay: cell-based or functional assay
[6] = molecular target: HA of B/Brisbane/60/2008 (Victoria) (influenza B virus); assay: cell-based or functional assay
[7] = molecular target: hemagglutinin (HA) of influenza B/Florida/04/06 (Yamagata) (influenza B virus); assay: cell-based or functional assay
[8] = molecular target: hemagglutinin (HA) of influenza B/Massachusetts/02/12 (Yamagata) (influenza B virus); assay: cell-based or functional assay
[9] = molecular target: HA of B/Florida/04/2006 (Yamagata) (influenza B virus); assay: cell-based or functional assay
[10] = molecular target: hemagglutinin (HA) of influenza B/Harbin/7/94 (Yamagata) (influenza B virus); assay: cell-based or functional assay
[11] = molecular target: hemagglutinin (HA) of influenza B/Malaysia/2506/04 (Victoria) (influenza B virus); assay: cell-based or functional assay
[12] = molecular target: HA of B/Brisbane/60/2008 (Victoria) (influenza B virus); assay: AlphaLISA competition vs CR9114
[13] = molecular target: HA of B/Florida/04/2006 (Yamagata) (influenza B virus); assay: AlphaLISA competition vs CR9114
[14] = molecular target: HA of H3N2 A/Brisbane/10/2007 (influenza A virus); assay: AlphaLISA competition vs CR9114
[15] = molecular target: HA of H3N2 A/Brisbane/10/2007 (influenza A virus); assay: AlphaLISA competition vs SD1038
[16] = molecular target: HA of H1N1 A/New Caledonia/20/1999 (influenza A virus); assay: BLI steady state
[17] = molecular target: HA of H5N1 A/PR8 H5N1 HK97 (influenza A virus); assay: cell-based or functional assay
[18] = molecular target: HA of H1N1 A/Puerto Rico/8/34-MA (influenza A virus); assay: cell-based or functional assay
[19] = molecular target: HA of H5N1 A/Vietnam/1194/04 (influenza A virus); assay: cell-based or functional assay
[20] = molecular target: HA of H7N3 A/NIBRG/60 (A/mallard/NL/12/00) (influenza A virus); assay: cell-based or functional assay
[21] = molecular target: HA of H3N2 A/Brisbane/10/2007 (influenza A virus); assay: cell-based or functional assay
[22] = molecular target: HA of H1N1 A/New Caledonia/20/1999 (influenza A virus); assay: cell-based or functional assay
[23] = molecular target: HA of B/Florida/04/2006 (Yamagata) (influenza B virus); assay: AlphaLISA competition vs CR8071
[24] = molecular target: recombinant HA of B/Brisbane/60/08 (Victoria) (influenza B virus); assay: biolayer interferometry (Octet), steady-state fit, geometric mean, pH 7.4
[25] = molecular target: recombinant HA of B/Florida/04/06 (Yamagata) (influenza B virus); assay: as above
[26] = molecular target: hemagglutinin (HA) of influenza virus B/Lee/40 (Old) (influenza B virus) (UniProt P03460); assay: cell-based or functional assay
[27] = molecular target: hemagglutinin (HA) of influenza virus B/Brisbane/60/08 (Victoria) (influenza B virus); assay: cell-based or functional assay
[28] = molecular target: hemagglutinin (HA) of influenza virus B/Florida/04/06 (Yamagata) (influenza B virus); assay: cell-based or functional assay
[29] = molecular target: hemagglutinin (HA) of influenza virus H3N2 A/HK/1/68-MA (influenza A virus); assay: cell-based or functional assay
[30] = molecular target: hemagglutinin (HA) of influenza virus H1N1 A/Puerto Rico/8/34-MA (influenza A virus); assay: cell-based or functional assay
[31] = molecular target: hemagglutinin (HA) of influenza virus H5N1 A/Vietnam/1194/04 (influenza A virus); assay: cell-based or functional assay
[32] = molecular target: hemagglutinin (HA) of influenza virus H6N1 A/Taiwan/2/2013 (influenza A virus); assay: cell-based or functional assay
[33] = molecular target: hemagglutinin (HA) of influenza virus H7N3 A/NIBRG/60 (A/mallard/Netherlands/12/00) (influenza A virus); assay: cell-based or functional assay
[34] = molecular target: HA of H3N2 A/Brisbane/10/2007 (influenza A virus); assay: AlphaLISA competition vs CR8057
[35] = molecular target: HA of H3N2 A/Brisbane/10/2007 (influenza A virus); assay: AlphaLISA competition vs CR8020
[36] = molecular target: HA of H7N3 A/NIBRG/60 (A/mallard/NL/12/00) (influenza A virus); assay: BLI steady state
[37] = molecular target: HA of H3N2 A/Brisbane/10/2007 (influenza A virus); assay: BLI steady state
[38] = molecular target: HA of H1N1 A/Brisbane/59/07 (influenza A virus); assay: cell-based or functional assay
[39] = molecular target: hemagglutinin (HA) of influenza A/chicken/Germany/n/49 (H10N7) (influenza A virus A/chicken/Germany/n/49 (H10N7)); assay: cell-based or functional assay
[40] = molecular target: hemagglutinin (HA) of influenza A/waterfowl/Hong Kong/MPA892/06 (H4) (influenza A virus A/waterfowl/Hong Kong/MPA892/06 (H4)); assay: cell-based or functional assay
[41] = molecular target: hemagglutinin (HA) of influenza A/Brisbane/10/07 (H3N2) (influenza A virus A/Brisbane/10/07 (H3N2)); assay: cell-based or functional assay
[42] = molecular target: hemagglutinin (HA) of influenza A/New York/107/03 (PR8) (influenza A virus A/New York/107/03 (PR8)); assay: cell-based or functional assay

B1: SD1087 (VHH)
VHH: EVQLVESGGGLVQPGGSLRLSCVISGLSLDTYAVGWFRQAPGKEREGITCISSGHGMTYYADSVKGRFTVSTDNAKNTVYLQMNGLQPEDTARYYCATESRYYCSDNWPAPQRYIYWGQGTQVTVSS
- pIC50 [1]: < 7
- pIC50 [2]: < 7
- pIC50 [3]: < 7
- pIC50 [4]: < 7
- VNA IC50 [5]: 22 nM
- VNA titer [6]: 10.2 nM
- hemagglutination inhibition titer [6]: > 50 µg/mL
- VNA IC50 [7]: > 1000 nM
- VNA IC50 [8]: 1000 nM
- VNA titer [9]: > 1000 nM
- hemagglutination inhibition titer [9]: > 50 µg/mL
- VNA IC50 [10]: > 1000 nM
- VNA IC50 [11]: 59 nM
- pIC50 [12]: 7.5
- pIC50 [13]: 8.8
- pIC50 [14]: < 7
- pIC50 [15]: < 7

B2: SD1045 (VHH)
VHH: EVQLVESGGGLVQAGGSLRLSCAASGSSFSINVMGWYRQAPGKQREMVATITYGGSTNYVDSVKGRFTISRDNAKNTVYLQMNSLKPEDTAVYYCNSRLAQINYWGQGTQVTVSS
- Kd [16]: 5 nM
- VNA titer [6]: > 1000 nM
- VNA titer [17]: 117 nM
- VNA titer [18]: 206 nM
- VNA titer [19]: 63.5 nM
- VNA titer [20]: > 1000 nM
- VNA titer [9]: > 1000 nM
- VNA titer [21]: 641 nM
- VNA titer [22]: 166 nM

B3: SD1086 (VHH)
VHH: EVQLVESGGGLVQAGGSLRLSCTASGSISSIDYMRWYRQYPGKHRELVATITSGGAADSRDSVKGRFTVSRGNAANTMYLQMNNLKPEDTAVYYCNAYGLEIGAHWGRGTQVTVSS
- pIC50 [1]: < 7
- pIC50 [23]: < 7
- pIC50 [4]: < 7
- VNA titer [6]: 827 nM
- VNA titer [9]: > 1000 nM
- pIC50 [12]: 8.6
- pIC50 [13]: 8

B4: MD1221 (VHH)
chain: EVQLVESGGGLVQPGGSLRLSCAATGFTLENKAIGWFRQTPGSEREGVLCISKSGSWTYYTDSMRGRFTISRDNAENTVYLQMDSLKPEDTAVYYCATTTAGGGLCWDGTTFSRLASSWGQGTQVTVSSAAAGGGGSGGGGSGGGGSGGGGSGGGGSGGGGSGGGGSEVQLVESGGGLVQPGGSLRLSCAATGFTLENKAIGWFRQTPGSEREGVLCISKSGSWTYYTDSMRGRFTISRDNAENTVYLQMDSLKPEDTAVYYCATTTAGGGLCWDGTTFSRLASSWGQGTQVTVSS
- Kd [24]: 1.7 nM
- Kd [25]: 1.9 nM
- neutralization titer [26]: 32.5 nM
- neutralization titer [27]: 23.4 nM
- neutralization titer [28]: 76.4 nM

B5: MD2401 (protein)
chain: EVQLVESGGGLVQPGGSLRLSCAVSISIFDIYAMDWYRQAPGKQRDLVATSFRDGSTNYADSVKGRFTISRDNAKNTLYLQMNSLKPEDTAVYLCHVSLYRDPLGVAGGMGVYWGKGALVTVSSAAAGGGGSGGGGSGGGGSGGGGSGGGGSGGGGSGGGGSEVQLVESGGGLVQAGGSLKLSCAASGRTYAMGWFRQAPGKEREFVAHINALGTRTYYSDSVKGRFTISRDNAKNTEYLEMNNLKPEDTAVYYCTAQGQWRAAPVAVAAEYEFWGQGTQVTVSSLINLEGGGGSGGGGSGGGGSGGGGSGGGGSGGGGSGGGGSPAGEVQLVESGGGLVQPGGSLRLSCAATGFTLENKAIGWFRQTPGSEREGVLCISKSGSWTYYTDSMRGRFTISRDNAENTVYLQMDSLKPEDTAVYYCATTTAGGGLCWDGTTFSRLASSWGQGTQVTVSSAAAGGGGSGGGGSGGGGSGGGGSGGGGSGGGGSGGGGSEVQLVESGGGLVQPGGSLRLSCAATGFTLENKAIGWFRQTPGSEREGVLCISKSGSWTYYTDSMRGRFTISRDNAENTVYLQMDSLKPEDTAVYYCATTTAGGGLCWDGTTFSRLASSWGQGTQVTVSS
- average neutralization titer [29]: 27.7 nM
- average neutralization titer [30]: 14.7 nM
- average neutralization titer [26]: 165 nM
- average neutralization titer [31]: 27.7 nM
- average neutralization titer [32]: 36.3 nM
- average neutralization titer [33]: 27.7 nM
- average neutralization titer [28]: 277 nM

B6: SD1046 (VHH)
VHH: EVQLVESGGGLVQAGDSLRISCAASGRTLSIYSMGWFRQAPGKEREFVATIGWNSGRTFYPDSLKGRFTISRDNARNTLYLQMNNLRPEDTAVYYCAAAKGPLRLSSQADYWGQGTQVTVSS
- pIC50 [34]: < 7
- pIC50 [35]: 9.6
- Kd [36]: 3 nM
- Kd [37]: 2 nM
- VNA titer [38]: > 1000 nM
- VNA titer [6]: > 1000 nM
- VNA IC50 [39]: 13 nM
- VNA IC50 [40]: 3 nM
- VNA titer [19]: > 1000 nM
- VNA titer [20]: 26.4 nM
- VNA titer [9]: > 1000 nM
- VNA titer [21]: 6.6 nM
- VNA IC50 [41]: 5 nM
- VNA IC50 [42]: 34 nM
- VNA titer [22]: > 1000 nM
- pIC50 [14]: 9.9
